How the values were obtained:
E. coli = experiment: Recombinant expression of DIESL in E. coli, TAG by TLC and mass spectrometry; type: cell-based; details: human DIESL preceded by a bacterial membrane targeting sequence, FIG. 4F
Experimental: E. coli BL21 were transformed with pET24 or pET28a plasmids expressing the indicated construct. Single clones were cultured up to a 5 ml volume in LB broth at OD 0.5 at 37° C. Cultures were then transferred to 25° C. for one hour, and then expression was induced with 0.2 mM IPTG for 16h. For SDS-PAGE and immunoblot analysis, 100 ul of culture was pelleted for 5 minutes at 3,500 g before lysis in SDS-PAGE sample buffer.
Equivalent numbers of human cells grown to confluence in 6-well plates were first washed with PBS. Cells were then incubated twice in 400 μl extraction buffer (3:2 hexane:isopropanol) for 10 minutes (35). E. coli cell pellets from 2 ml of overnight culture were incubated in 500 μl extraction buffer (only once) for 30 minutes while rotating. Extractions were pooled and dried under nitrogen stream, to a volume of ˜10 μl, and then spotted on silica gel 60 TLC plates (Sigma-Aldrich). Plates were placed in a TLC tank containing a mobile phase to separate neutral lipids (80:20:1 hexane:diethyl ether:acetic acid) or polar lipids (60:50:4:1 chloroform:methanol:water:acetic acid). […] After drying, NBD fluorescence was monitored on a Universal Hood GelDoc system (Bio-Rad) using the fluorescein channel. […] (shaking at 850 rpm) for the indicated time (final [14C] DAG concentration, 50 μM; total radioactivity per assay, 0.14 μCi). […]

[1] = system: HAP1 4KO cells (ΔDGAT1ΔDGAT2ΔDIESLΔTMX1); experiment: Shotgun lipidomics of HAP1 4KO cells reconstituted with WT or H130A DIESL; type: cell-based, human; details: HAP1 4KO cells expressing active (WT) or catalytic-inactive (H130A) DIESL; FIG. 4B
Experimental: HAP1 4KO (ΔDGAT1ΔDGAT2ΔDIESLΔTMX1) cells, reconstituted with WT or H130A DIESL, were cultured in complete medium. Prior to collection, cells were cultured in serum-free IMDM for thirty minutes. Cells were then collected by trypsinization, washed twice with PBS and three million cells (in triplicate) were pelleted and stored at −80° C. For E. coli samples, 2 ml of induced culture (as described above, in triplicate) was pelleted and incubated overnight at −80° C. The following day, bacterial pellets were thawed and incubated in 25 μg/ml lysozyme in PBS for 30 minutes. Cells were pelleted, washed in PBS, and then pelleted again before resuspension in distilled water. Cells were sonicated at 60% amplitude for 5 minutes, in continuous 5-second on/25-second off cycles. The insoluble fraction was pelleted by centrifugation and the lysate (supernatant) was quantified for protein and stored at −80° C. […]
Samples were analyzed by direct infusion on a QExactive mass spectrometer (Thermo Scientific) equipped with a TriVersa NanoMate ion source (Advion Biosciences). Samples were analyzed in both positive and negative ion modes with a resolution of Rm/z=200=280000 for MS and Rm/z=200=17500 for MSMS experiments, in a single acquisition. […]
Data were analyzed by Lipotype GmbH with in-house developed lipid identification software based on LipidXplorer (41, 42). […]

B1: active DIESL: DIESL polypeptide (human transmembrane protein 68, SEQ ID NO: 1) with triacylglycerol synthase activity (protein, listed as Homo sapiens)
chain: MIDKNQTCGVGQDSVPYMICLIHILEEWFGVEQLEDYLNFANYLLWVFTPLILLILPYFTIFLLYLTIIFLHIYKRKNVLKEAYSHNLWDGARKTVATLWDGHAAVWHGYEVHGMEKIPEDGPALIIFYHGAIPIDFYYFMAKIFIHKGRTCRVVADHFVFKIPGFSLLLDVFCALHGPREKCVEILRSGHLLAISPGGVREALISDETYNIVWGHRRGFAQVAIDAKVPIIPMFTQNIREGFRSLGGTRLFRWLYEKFRYPFAPMYGGFPVKLRTYLGDPIPYDPQITAEELAEKTKNAVQALIDKHQRIPGNIMSALLERFH
- TAG synthesis in E. coli (E. coli): induced de novo TAG synthesis
- TAG abundance as share of the lipidome [1]: 20.5 % of the lipidome

Source: US20250011734A1, “DGAT1/2-INDEPENDENT ENZYME SYNTHESIZING STORAGE LIPIDS (DIESL)” (STICHTING HET NEDERLANDS KANKER INSTITUUT-ANTONI VAN …, priority 2021, published 2025)
